Assay results taken from article PMC10899635 (2024).

B1: recombinant Q586B2 protein (natural protein)
chain: MPNLVVTATFSPPAFSIVGSPLREDTIKHMEERIPTVLSTALSRSREPSYFVHSKNPESWKMELSQHFCDELHRAAVSLVIIECLDAEGWVLRTSSSSQDTNEGKCCIKFYFTRS

Experiments:
[1] = biological target: B1

Binder | Kd [1] | Kd (Nb34) | Kd (Nb36)
Nb27 (VHH) VHH: QVQLQESGGGLVQPGGSLRLSCTTSRSILSIYAMGWYRQAPGKQRELVAVITSGGSTYYADSVKGRFTISRDNAKNTLYLQMNSLKPEDTALYYCARGGYGTSPQPSWGQGTQVTVSS | 52 nM |  | 
B1 |  | 36.7 nM | 11.3 nM
Nb39 (VHH) VHH: QVQLQESGGGLVQPGGSLRLSCTASGSIFSGYAMGWYRQAPGKQRELVAGITSGGSTIYAGSVKGRFTISRDNAKNTVYLQMNSLKPEDTAVYYCKNGTYYSARDYWGQGTQVTVSS | 49.9 nM |  | 
